Biological target: T1, full-length MUC1 glycoprotein of HT29-MTX cells (Homo sapiens, HT29-MTX cells, UniProt P15941, VNTR heavily O-linked glycosylated)
T1 construct: Mucin 1 (MUC1), endogenous in the human colon cancer cell line HT29-MTX; band at an estimated 600 kD; written here as one chain; also called Mucin 1; source: endogenous, HT29-MTX lysate (Western blot) and fixed, permeabilized HT29-MTX monolayers (immunofluorescence)
Test: far-Western, overlay or dot blot; immunoblot of SDS lysates of HT29-MTX and HT29-MTX ΔMUC1 cells on a mucin-SDS gel, PVDF; 139H2 antibodies 1:1,000 in TSMT with 1% BSA, 1 h at RT; detected with anti-mouse IgG
Details: one partner purified

T1 sequence (P15941 24-1255): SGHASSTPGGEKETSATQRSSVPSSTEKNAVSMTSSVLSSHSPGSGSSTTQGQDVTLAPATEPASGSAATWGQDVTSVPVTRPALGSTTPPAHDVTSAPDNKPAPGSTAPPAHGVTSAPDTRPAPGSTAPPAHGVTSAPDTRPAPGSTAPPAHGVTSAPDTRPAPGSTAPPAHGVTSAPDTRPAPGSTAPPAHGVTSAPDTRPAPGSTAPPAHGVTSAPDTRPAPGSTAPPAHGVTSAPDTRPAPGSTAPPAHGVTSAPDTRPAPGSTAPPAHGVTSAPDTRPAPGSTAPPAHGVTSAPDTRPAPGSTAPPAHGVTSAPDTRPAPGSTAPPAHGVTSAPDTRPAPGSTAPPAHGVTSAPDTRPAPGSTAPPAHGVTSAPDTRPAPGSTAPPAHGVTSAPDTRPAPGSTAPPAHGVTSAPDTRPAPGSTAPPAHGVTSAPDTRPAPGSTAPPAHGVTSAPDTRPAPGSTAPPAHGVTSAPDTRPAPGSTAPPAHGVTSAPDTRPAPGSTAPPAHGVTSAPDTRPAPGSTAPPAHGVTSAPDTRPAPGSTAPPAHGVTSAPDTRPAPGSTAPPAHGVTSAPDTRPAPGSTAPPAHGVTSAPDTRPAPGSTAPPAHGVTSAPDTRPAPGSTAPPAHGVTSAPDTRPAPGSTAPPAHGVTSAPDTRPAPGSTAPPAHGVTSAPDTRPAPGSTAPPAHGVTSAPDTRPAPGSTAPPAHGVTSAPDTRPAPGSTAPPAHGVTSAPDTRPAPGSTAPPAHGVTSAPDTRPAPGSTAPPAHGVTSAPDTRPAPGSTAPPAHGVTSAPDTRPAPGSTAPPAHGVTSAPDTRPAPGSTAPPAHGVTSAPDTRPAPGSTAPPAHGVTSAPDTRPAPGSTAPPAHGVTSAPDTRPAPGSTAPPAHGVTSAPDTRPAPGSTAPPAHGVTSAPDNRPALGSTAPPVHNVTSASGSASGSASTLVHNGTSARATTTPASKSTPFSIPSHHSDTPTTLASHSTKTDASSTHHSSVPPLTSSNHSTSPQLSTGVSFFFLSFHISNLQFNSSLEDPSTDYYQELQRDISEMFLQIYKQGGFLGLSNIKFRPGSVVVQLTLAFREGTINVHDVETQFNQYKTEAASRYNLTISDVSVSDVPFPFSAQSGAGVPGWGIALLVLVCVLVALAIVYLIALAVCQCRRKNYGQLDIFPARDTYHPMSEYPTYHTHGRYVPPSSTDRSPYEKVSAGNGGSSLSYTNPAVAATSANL

Binder	binding result
hybridoma-derived 139H2 IgG (antibody, V domains shown, as the heavy-chain variable domain of m1 (IGHV1-53); as the light-chain variable domain of m1 (IGKV8-30); mouse kappa light-chain constant region; Mouse IgG1, kappa; also called original hybridoma-derived 139H2; 139H2 WT; source: hybridoma culture supernatant (gift, NKI), purified (Protein G Sepharose); copies: 2 + 2) VH: QVQLQQSGAELVKPGASVKLSCKASGYTFTNYYMYWVLQRPGQGLEWIGEINPSNGGTTFNEKFKNKATLTVDKSSSTAYMQLNSLTSEDSAVYYCTRSRYGNYVNYGMDYWGQGTSVTVSS VL: DIVMSQSPSSLAVSVGEKVTMSCKSSQSLLYSNTQKNYLAWYQQKPGQSPKLLIYWASTRESGVPDRFTGSGSGTDFTLTISSVKAENLAVYYCQQYYRYPPTFGGGTKLELK	binds
recombinant (reverse-engineered) 139H2 IgG (antibody, V domains shown, also in PDB 8P6I; standard mouse Ig gamma-1 (IGHG1) constant region, linker and Fc region, UniProt P01868.1; mouse kappa light-chain constant region (kappa light-chain backbone); Mouse IgG1, kappa; also called synthetic recombinant 139H2; recombinant 139H2; source: HEK293 cells (ImmunoPrecise Antibodies), culture supernatant, purified (HisTrap Excel); copies: 2 + 2) VH: QVQLQQSGAELVKPGASVKLSCKASGYTFTNYYMYWVLQRPGQGLEWIGEINPSNGGTTFNEKFKNKATLTVDKSSSTAYMQLNSLTSEDSAVYYCTRSRYGNYVNYGMDYWGQGTSVTVSS VL: DIVMSQSPSSLAVSVGEKVTMSCKSSQSLLYSNTQKNYLAWYQQKPGQSPKLLIYWASTRESGVPDRFTGSGSGTDFTLTISSVKAENLAVYYCQQYYRYPPTFGGGTKLELK	binds
recombinant 139H2 Fab fragment (Fab, V domains shown, as the heavy-chain variable domain of m1 (IGHV1-53); mouse Ig gamma-1 (IGHG1) Fab constant region; as the light-chain variable domain of m1 (IGKV8-30); mouse kappa light-chain constant region, as in m1; also called monovalent Fab fragment; anti-MUC1 Fab; source: HEK293 cells (ImmunoPrecise Antibodies), culture supernatant, purified (HisTrap Excel, Superdex 200 SEC)) VH: QVQLQQSGAELVKPGASVKLSCKASGYTFTNYYMYWVLQRPGQGLEWIGEINPSNGGTTFNEKFKNKATLTVDKSSSTAYMQLNSLTSEDSAVYYCTRSRYGNYVNYGMDYWGQGTSVTVSS VL: DIVMSQSPSSLAVSVGEKVTMSCKSSQSLLYSNTQKNYLAWYQQKPGQSPKLLIYWASTRESGVPDRFTGSGSGTDFTLTISSVKAENLAVYYCQQYYRYPPTFGGGTKLELK	binds
